The test system of data set [1] is T1, N[C@@H](CC1(C(=O)O)C=CC(O)C=C1)C(=O)O.
T1 construct: full-length, codon-optimized, N-terminal 6xHis tag (pET28a), E. coli Rosetta2 (DE3), HisTrap purified; monofunctional enzyme
Description: A340 reduced cofactor formation, Michaelis-Menten fit. The class given is biochemical, Methanothrix harundinacea. The settings on record: 0.8 mM preferred cofactor (NADP+), 25 mM HEPES pH 7.6, 50 mM KCl, 10% ethylene glycol. From the text: (§1) A340 reduced cofactor formation, Michaelis-Menten fit on MhTyrA (MhTyrAp)

The test system of data set [2] is T2, O=C(O)C(=O)CC1(C(=O)O)C=CC(O)C=C1.
T2 construct: full-length, codon-optimized, N-terminal 6xHis tag (pET28a), E. coli Rosetta2 (DE3), HisTrap purified; monofunctional enzyme
Described as above. In kind it is biochemical, Methanothrix harundinacea. The settings on record: 25 mM HEPES pH 7.6, 50 mM KCl, 10% ethylene glycol.
Description: as §1

The target in data set [3] is T3, OiTyrA (OiTyrAa) (Brucella intermedia, UniProt C4WNJ2).
T3 construct: gene OINT_2001142
In kind it is biochemical.

Substrate in data set [4]: N[C@@H](CC1(C(=O)O)C=CC(O)C=C1)C(=O)O
Description: A340 reduced cofactor formation, Michaelis-Menten fit. The class given is biochemical, Sediminispirochaeta smaragdinae. Particulars: 25 mM HEPES pH 7.6, 50 mM KCl, 10% ethylene glycol. The source says:
(§2) A340 reduced cofactor formation, Michaelis-Menten fit on SsTyrA (SsTyrAa)

Substrate in data set [5]: O=C(O)C(=O)CC1(C(=O)O)C=CC(O)C=C1
The data set is described as above. The class given is biochemical, Sediminispirochaeta smaragdinae. Particulars: 0.8 mM preferred cofactor, 25 mM HEPES pH 7.6, 50 mM KCl, 10% ethylene glycol.
Description: as §2

Where [6] appears, read: 0.8 mM preferred cofactor (NADP+).
Setting [7] is: 0.8 mM preferred cofactor (NAD+ slightly preferred).

Changes are numbered by the printed parent chain. Names may count otherwise.

The results in this text go back to publication PMC5681985, “Conserved Molecular Mechanism of TyrA Dehydrogenase Substrate Specificity Underlying Alternative Tyrosine Biosynthetic Pathways in Plants and Microbes” (Frontiers in Molecular Biosciences, 2017).

T3 sequence (C4WNJ2 1-269 limits assumed): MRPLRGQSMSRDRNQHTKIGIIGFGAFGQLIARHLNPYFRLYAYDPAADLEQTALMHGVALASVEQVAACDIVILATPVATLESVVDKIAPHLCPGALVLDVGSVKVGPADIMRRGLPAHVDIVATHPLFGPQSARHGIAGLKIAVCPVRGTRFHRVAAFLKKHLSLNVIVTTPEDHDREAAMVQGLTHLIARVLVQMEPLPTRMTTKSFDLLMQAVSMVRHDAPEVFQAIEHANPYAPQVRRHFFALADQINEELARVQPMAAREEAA

For orientation: Km means the substrate concentration at which the rate is half of its maximum. By kcat is commonly meant the maximal rate divided by the concentration of active sites. As usually defined, the kcat/Km is the turnover number divided by the Michaelis constant. On to “MhTyrA (MhTyrAp) (Methanothrix harundinacea; Q227E)”, for which, in data set [1], the Michaelis-Menten constant (Km) worked out at 3.290 ± 0.22 mM, the kcat was 0.704 ± 0.03 s⁻¹ and the kcat/Km worked out at 213 ± 50 M⁻¹ s⁻¹. Further, in data set [2] (setting [6]), the Km is on record as 2.669 ± 0.32 mM, the kcat worked out at 0.285 ± 0.02 s⁻¹ and the specificity constant (kcat/Km) stood at 107 ± 40 M⁻¹ s⁻¹.
`NC(=O)c1ccc[n+]([C@@H]2O[C@H](COP(=O)(O)OP(=O)(O)OC[C@H]3O[C@@H](n4cnc5c(N)ncnc54)[C@H](O)[C@@H]3O)[C@@H](O)[C@H]2O)c1` [NAD^+]: the “HPLC product assay, 45 min” value in data set [3] is “strongly preferred NAD^+ over NADP^+ cofactor”.
As for “MhTyrA (MhTyrAp) (Methanothrix harundinacea)”, in data set [2] (0.8 mM NADP+), the Michaelis-Menten constant (Km) is on record as 0.378 ± 0.02 mM, the kcat was found to be 2.44 ± 0.38 s⁻¹ and the kcat/Km was 6440 ± 540 M⁻¹ s⁻¹.
In the case of `N[C@@H](CC1(C(=O)O)C=CC(O)C=C1)C(=O)O` (some centres unmarked) [arogenate], in data set [3], the “HPLC product assay, 45 min” value is “E. coli cell lysate expressing OiTyrA had ADH but not PDH activity”.

B1: SsTyrA (SsTyrAa) (Sediminispirochaeta smaragdinae DSM 11293) (protein)
chain: MVEHTVGIYGLGRFGSFWAKSLAASGLKVIGYNRSKRALPEGVVSGSETEVLSCNTLFYCVAISSFEEVLSRTAAKIGKHTLVFDTCSVKVEPVRTMERLLPQGCTFAGSHPMFGPDSASEGMDGLPMVLCPGRDDEGKVDFWRHHFSKMGLRVIEITADRHDKEAAYTQGITHVVGRILGELDLHESEIATSGYKRLLQVREQTCNDPLQLFIDLQRYNPYTHGMRMELTSALEQIMTLFAQADLPPDRP
notes: full-length, codon-optimized, N-terminal 6xHis tag (pET28a), E. coli Rosetta2 (DE3), HisTrap purified
B1: in data set [4] (setting [7]), the Km was determined as 0.901 ± 0.15 mM, the catalytic constant (kcat) came out at 3.44 ± 0.31 s⁻¹ and the kcat/Km turned out to be 4030 ± 1010 M⁻¹ s⁻¹.

B2: SsTyrA (SsTyrAa) (Sediminispirochaeta smaragdinae DSM 11293; D208N) (protein)
chain: B1 chain with D208N
notes: as for B1
As for B2, in data set [4] (0.8 mM preferred cofactor), the Michaelis-Menten constant (Km) is 0.847 ± 0.16 mM, the kcat was determined as 0.45 ± 0.01 s⁻¹ and the kcat/Km came to 568 ± 140 M⁻¹ s⁻¹. In addition, in data set [5], the Michaelis-Menten constant (Km) turned out to be 1.742 ± 0.63 mM, the catalytic constant (kcat) is 0.863 ± 0.12 s⁻¹ and the catalytic efficiency (kcat/Km) is 587 ± 400 M⁻¹ s⁻¹.
